Key:
Assay in all cases: ITC; VP-ITC, 25 °C; UBA5 peptides (~400 µM) titrated into 20–25 µM binding partner; 25 mM HEPES pH 7.5, 100 mM NaCl; one-site model; a single profile for each interaction
Settings in all cases: both partners purified
[1] = target: T1, Full length UFM1, residues 2–83 (UniProt P61960 2-83)
T1 construct: N-terminal cloning artefact left after TEV cleavage (vector pET39_Ub19); UFM1 (ubiquitin fold modifier 1), residues 2–83 (processed form ending at Gly83); also called Ubiquitin fold modifier 1; source: E. coli T7 Express, purified (His Trap IMAC, TEV cleavage, reverse IMAC, Superdex gel filtration); not shown: modified ubiquitin tag (Ub19), N-terminal, cleaved
T1 sequence (P61960 other isoform, or with tags, fused parts or gaps): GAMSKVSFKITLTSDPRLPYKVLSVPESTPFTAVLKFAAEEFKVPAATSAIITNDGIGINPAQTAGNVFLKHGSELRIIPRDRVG

[2] = target: T2, GABARAPL2, residues 3–116 (UniProt P60520 3-116)
T2 construct: N-terminal cloning artefact left after TEV cleavage (vector pET39_Ub19); source: E. coli T7 Express, purified (His Trap IMAC, TEV cleavage, reverse IMAC, Superdex gel filtration); not shown: modified ubiquitin tag (Ub19), N-terminal, cleaved
T2 sequence (P60520 other isoform, or with tags, fused parts or gaps): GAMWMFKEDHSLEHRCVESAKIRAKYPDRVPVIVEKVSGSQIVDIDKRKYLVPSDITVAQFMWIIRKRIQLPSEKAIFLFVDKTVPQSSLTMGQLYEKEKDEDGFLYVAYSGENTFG

LC3B, residues 5–120 = LC3B, residues 5–120 (UniProt Q9GZQ8 5-120)

Measured: Kd

B1: UBA5 C-terminal region R2, residues 359–376 (peptide)
chain: GAMGPVPDLPEGITVAYTIPK
notes: N-terminal cloning artefact left after TEV cleavage (vector pET39_Ub19); also called isolated R2 peptide; source: E. coli T7 Express, purified (His Trap IMAC, TEV cleavage, reverse IMAC, Superdex gel filtration); not shown: modified ubiquitin tag (Ub19), N-terminal, cleaved
> 100 µM: all assays above

Reference: PMC8304084, “A Concerted Action of UBA5 C-Terminal Unstructured Regions Is Important for Transfer of Activated UFM1 to UFC1” (International Journal of Molecular Sciences, 2021)
